Results reported in patent US10494417B2, “Peptide inhibitors of BCR-ABL oligomerization” (University of Utah Research Foundation, priority 2014, dated 2019).
“Also recorded” adds a separate entry of the source.

How the values were obtained:
parental Ba/F3 cells = test: Proliferation of transfected parental Ba/F3 cells (MTS assay); format: cell-based, mouse; conditions: for proliferation of parental Ba/F3 cells: MTS assay at 72 and 96 h, CCmut3 vs EV
Method: (§1) Stable recombinant Ba/F3 cells transduced with wild type p210 BCR-ABL1 (Daley, G. Q., et al. (1991) Proc. Natl. Acad. Sci. U.S.A. 88, 11335-11338), the kinase domain mutants p210^T315I p210^[…], or the compound mutant p210^E255V/T315I were as previously described (La Rosee, P., et al. (2002) Cancer Res. 62, 7149-7153; O'Hare, T., et al. (2004) Blood 104, 2532-2539). These cells were cultured in RPMI with 10% FBS, 1% penicillin, streptomycin, glutamine, and 0.1% gentamycin (RPMI1640). Additionally 0.1% MycoZap™ (Lonza Bio, Basel, Switzerland) was added to prevent mycoplasma contamination. The non-transduced parental Ba/F3 cell line was grown in RPMI1640 supplemented with 20% WEHI-3B conditioned medium as a source of murine IL-3 (Dexter, T. M., et al. (1980) J. Exp. Med. 152, 1036-1047). Ba/F3 cells were transfected with plasmid DNA using the Amaxa nucleofection system (Lonza Bio), following the manufacturer's instructions. Cells were sorted on a BD FACSAria cytometer (BD Biosciences, San Jose, Calif.) for double-positive cells expressing mCherry and GFP then returned to RPMI1640 for subsequent experiments.
(§2) Cell proliferation was assessed using the CellTiter 96® AQueous One Solution Cell Proliferation Assay (MTS assay, Promega) according to manufacturer instructions. Briefly, 5,000 viable cells were added to a single well in 96-well plate in 100 μL RPMI1640. Three independent samples were seeded in duplicate for each time point. […] In some experiments, cell proliferation was assessed using a Neubauer chamber and trypan blue dye exclusion.
(§3) Stable Ba/F3 cells transduced with native (p210) BCR-ABL1, the kinase domain mutants BCR-ABL1T315I, BCR-ABL1E255V, or the compound mutant BCR-ABL1E255V/T315I were cultured. […]
(§4) Cell proliferation was assessed using a […] viability assay (MTS assay) utilizing CellTiter 96® AQueous One Solution Cell Proliferation Assay (Promega) according to manufacturer instructions. […] Cell growth was assessed by MTS assay at 72 and 96 h. […] In patient sample experiments, cell proliferation was assessed by trypan blue exclusion.

[1] = tested on: Ba/F3 cells expressing BCR-ABL1E255V; test: Proliferation of transfected Ba/F3 BCR-ABL1 E255V cells (MTS assay); format: cell-based, mouse; conditions: CCmut3 vs EV; for proliferation, in words: MTS assay at 72 and 96 h
Method: as §1, §2, §3, §4

K562 cells [2] = test: 7-AAD and Annexin V staining of protein-treated K562 cells; format: cell-based, human; conditions: proteins 30 μM, imatinib 2.5 μM; 48 and 72 hours after treatment
Method: 0.5 μL of 1 mM 7-AAD (Invitrogen) was added to each sample, followed by a 45 minute incubation on ice. […] Analysis was performed using the FACS Canto-II (BD BioSciences, University of Utah Core Facility) with FACS Diva software. 7-AAD and APC were excited at 488 and 635 nm wavelengths, and emissions were detected at 660 nm. Percentage of apoptosis/necrosis was calculated by the percentage of cells that stained positive for 7-AAD and/or APC. Independent treatments were tested three times (n=3).

K562 cells [3] = test: Colony forming assay of transfected K562 cells; format: cell-based, human; conditions: for colony formation (transformative ability), in words: construct delivered as a gene by transfection, vs EGFP (and WT) control
Method: Both EGFP and EGFP-CC^mut3 were transfected into separate groups of cells on day 0. One day following transfection, 1.0×10^6 cells per treatment group were collected and re-suspended in 1.0 mL of PBS. Through serial dilutions, 1.0×10^3 cells in IMDM (Isocove's modified Dulbecco's media) with 2% FBS were seeded into methylcellulose medium in the absence of cytokines (MethoCult H4230 for K562 cells and MethoCult M3234 for p210 and p210-T315I cells) or in the presence of cytokines (MethoCult GF M3434 for parental Ba/F3 cells). Ponatinib was then added in the correct molar amounts (0, 100 pM, 1 nM, or 10 nM) to the methylcellulose medium. Colonies formed were counted after 7 days of incubation. All reagents were purchased from Stem Cell Technologies, Vancouver, BC, Canada. Assay was run three separate times (n=3) in duplicate.
Briefly, K562 or Ba/F3-p210 cells were transfected according to the protocol above. One day following transfection, 1.0×10^6 cells per transfection group were collected and re-suspended in sterile PBS. […] Finally, 1.1 mL of cell/methylcellulose mixture was seeded in duplicate and allowed to grow at 37° C. and 5% CO2 for 7 days. Colony formation was assessed by counting colonies in two 200 μm2 areas on the plate. Experiments were performed once in duplicate (n=1 in duplicate). All kit reagents and media were purchased from Stem Cell Technologies (Vancouver, BC, Canada).

B1: CCmut3: modified Bcr-Abl coiled-coil domain (residues 1-72) with mutations C38A, K39E, S41R, L45D, E48R, Q60E (protein)
chain: MVDPVGFAEAWKAQFPDSEPPRMELRSVGDIEQELERAEARIRRDEQRVNQERFRMIYLETLLAKEKKSYDR
proliferation of parental Ba/F3 cells (parental Ba/F3 cells): not affected; also recorded: No difference | proliferation of parental Ba/F3 cells (parental Ba/F3 cells; listed as CC^mut3): not affected; also recorded: No difference | toxicity in BCR-ABL1-negative cells (parental Ba/F3 cells; parental Ba/F3 cells, FIGS. 38a, c, e (proliferation, apoptosis, colony formation)): no measurable toxicity | reduction of proliferation ([1]; 96 h, MTS assay): approximately 3 fold | proliferation, in words [1]: significant reduction of proliferative capacity; also recorded: lesser, yet significant difference was noted at the 72 h time point | proliferation, in words ([1]; listed as CC^mut3): significant reduction | induction of apoptosis/necrosis (7-AAD and/or Annexin V positive cells) (K562 cells [2]): did not induce apoptosis | colony formation, of EGFP control (K562 cells [3]; 7 days after seeding, normalized to EGFP control, n=1 in duplicate): approximately 20% | decrease in the amount of colonies formed compared to EGFP (K562 cells [3]; CC^mut3 alone, no ponatinib, 7 days): 3 fold | colony formation (transformative ability), in words (K562 cells [3]): showed inhibitory activity | colony formation (transformative ability), in words (K562 cells [3]; listed as CC^mut3): inhibits colony formation; also recorded: significantly greater inhibition
